# T1: OVA (UniProt P01012 2-386)
# T1 sequence: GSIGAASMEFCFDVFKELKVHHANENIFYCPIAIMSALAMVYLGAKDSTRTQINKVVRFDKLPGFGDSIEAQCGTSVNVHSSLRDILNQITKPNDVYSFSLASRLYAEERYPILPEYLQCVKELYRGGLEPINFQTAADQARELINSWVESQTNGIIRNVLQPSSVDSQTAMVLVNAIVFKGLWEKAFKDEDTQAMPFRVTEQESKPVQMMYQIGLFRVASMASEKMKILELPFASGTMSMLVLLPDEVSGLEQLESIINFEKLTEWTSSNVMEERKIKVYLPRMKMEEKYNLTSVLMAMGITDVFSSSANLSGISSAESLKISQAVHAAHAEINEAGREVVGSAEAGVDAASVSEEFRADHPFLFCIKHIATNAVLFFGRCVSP
# Experiments:
# BSA = biological target: T2, BSA (UniProt P02769 25-607); assay: ELISA
# T2 construct: carrier for immunization
# OVA = biological target: T1, OVA; assay: ELISA
# T2 sequence (P02769 25-607 limits assumed): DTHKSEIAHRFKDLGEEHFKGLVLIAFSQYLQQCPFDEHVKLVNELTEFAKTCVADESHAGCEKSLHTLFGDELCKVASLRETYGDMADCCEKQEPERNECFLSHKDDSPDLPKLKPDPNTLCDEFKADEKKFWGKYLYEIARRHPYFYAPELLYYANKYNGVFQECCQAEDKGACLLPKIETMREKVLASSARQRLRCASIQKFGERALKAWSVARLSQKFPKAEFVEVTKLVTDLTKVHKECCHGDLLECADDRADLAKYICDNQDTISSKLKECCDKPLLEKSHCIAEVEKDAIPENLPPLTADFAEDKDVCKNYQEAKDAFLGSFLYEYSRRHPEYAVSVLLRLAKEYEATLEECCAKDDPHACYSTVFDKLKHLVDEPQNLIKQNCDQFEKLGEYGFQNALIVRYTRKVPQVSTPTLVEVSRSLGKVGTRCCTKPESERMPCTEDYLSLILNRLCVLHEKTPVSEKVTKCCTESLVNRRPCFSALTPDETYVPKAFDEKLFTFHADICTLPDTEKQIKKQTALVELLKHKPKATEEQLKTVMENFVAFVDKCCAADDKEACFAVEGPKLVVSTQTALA
Binder,binding result (BSA),binding result (OVA)
"L66 (antibody, V domains shown) VH: EVQLVESGGGVVRPGGSLRLSCAASGFTFDDYGMSWVRQAPGKGLEWVSGINWNGGSTGYADSVKGRFTISRDNAKNSLYLQMNSLRAEDTALYYCARDRVTMVRGVIMDYYGMDVWGQGTTVTVSS VL: QTVVTQEPSLTVSPRGTVTLTCSSSTGAVTSGYYPGWFQLKPGQAPMSLIYSARKKHSWTPARFSGSLLGGKAALTLSGVQPEDEAEYYCLLYYGGAYVFGTGTKVTVLG",no binding (tested: OD450 below 0.1),no binding (tested: OD450 below 0.1)
"human anti-M2 antibody C40 (antibody, V domains shown) VH: QLQLQESGPGLVKPSETLSLTCTVSGGSISSSFYYCGWIRQPPGKGLEWIGSIYYRGSTYYNPSLKSRVTISVDTSKNQFSLKLSSVTAADTAVYYCARRVTMVRGVKGDYFDYWGQGTLVTVSS VL: DIQMTQSPSSLSASVGDRVTITCRASQGISSWLAWYQQKPEKVPKSLIYAASSLQSGVPSRFSGSGSGTDFTLTISSLQPEDFATYYCQQYNYYPLTFGGGTKVEIKR",no binding (tested: OD450 below 0.1),no binding (tested: OD450 below 0.1)
"C40G1 (antibody, V domains shown) VH: QLQLQESGPGLVKPSETLSLTCTVSGGSISSSFYYCGWIRQPPGKGLEWIGSIYYRGSTYYNPSLKSRVTISVDTSKNQFSLKLSSVTAADTAVYYCARRVTMVRGVKGDYFDYWGQGTLVTVSS VL: DIQMTQSPSSLSASVGDRVTITCRASQGISSWLAWYQQKPEKVPKSLIYAASSLQSGVPSRFSGSGSGTDFTLTISSLQPEDFATYYCQQYNYYPLTFGGGTKVEIKR",no binding (tested: OD450 below 0.1),no binding (tested: OD450 below 0.1)
"N547 (antibody, V domains shown) VH: not shown VL: QSVLTQPPSMSAAPGQKVTISCSGSSSNIGNNYISWYQQLPGTAPKVLIYDNNKRPSGIPDRFSGSKSGTSATLGITGLQTGDEADYYCGSWDSSLSAGVFGTGTKVTVLG",no binding (tested: OD450 below 0.1),no binding (tested: OD450 below 0.1)

# Source: patent publication US20050170334A1 (published 2005)
